{"source": "patent US20120021923", "data": [{"substance": "prostate-specific antigen (PSA)", "values": [{"measurement": "Km (PSA-A buffer)", "setting": "Ac-KGISSQY-AFC", "result": "the Km value is estimated to be 1.73 mM"}, {"measurement": "Km (PSA-B buffer)", "setting": "Ac-KGISSQY-AFC", "result": "the Km value is estimated to be 0.47 mM"}, {"measurement": "Vmax (PSA-A buffer)", "setting": "Ac-KGISSQY-AFC", "result": "the Vmax is estimated to be 3.7 RLU/sec"}, {"measurement": "Vmax (PSA-B buffer)", "setting": "Ac-KGISSQY-AFC", "result": "the Vmax is estimated to be 2.33 RLU/sec"}, {"measurement": "turnover rate by PSA", "setting": "Ac-KGISSQY-AFC", "result": "the substrate of KGISSQY has a much higher turnover rate by PSA as compared to SKLQ"}, {"measurement": "turnover rate by PSA", "setting": "SKLQ-aluc", "result": "SKLQ on the other had appears to have a very slow turnover compared to KGISSQY and to be highly specific to PSA"}]}]}
